How the values were obtained:
human IgE (human) [1] = biological target: human IgE (human) (UniProt P01854); test: ELISA relative potency; GI-301 dialyzed into 10 mM His/HCl pH 6.7, 250 mM proline
human IgE (human) [2] = biological target: human IgE (human) (UniProt P01854); test: ELISA relative potency; GI-301 dialyzed into 10 mM His/HCl pH 6.7, 250 mM mannitol
human IgE (human) [3] = biological target: human IgE (human) (UniProt P01854); test: ELISA relative potency; GI-301 dialyzed into 10 mM Tris/HCl pH 7.4, 250 mM proline
human IgE (human) [4] = biological target: human IgE (human) (UniProt P01854); test: ELISA relative potency; GI-301 dialyzed into 10 mM His/HCl pH 6.7, 250 mM trehalose
human IgE (human) [5] = biological target: human IgE (human) (UniProt P01854); test: ELISA relative potency; GI-301 dialyzed into 10 mM Tris/HCl pH 7.4, 250 mM mannitol
human IgE (human) [6] = biological target: human IgE (human) (UniProt P01854); test: ELISA-based potency on human IgE; GI-301 100 mg/mL, 250 mM proline, histidine/HCl pH 6.7, no additive; after 35° C., 200 rpm, 5 days; n=2
human IgE (human) [7] = biological target: human IgE (human) (UniProt P01854); test: ELISA-based potency on human IgE; GI-301 100 mg/mL, 250 mM proline, histidine/HCl pH 6.7, no additive; after 35° C., 200 rpm, 14 days; n=2
human IgE (human) [8] = biological target: human IgE (human) (UniProt P01854); test: ELISA-based potency on human IgE; GI-301 100 mg/mL, 250 mM proline, histidine/HCl pH 6.7, 0.1 w/v % Tween 80; after 35° C., 200 rpm, 5 days; n=2
human IgE (human) [9] = biological target: human IgE (human) (UniProt P01854); test: ELISA-based potency on human IgE; GI-301 100 mg/mL, 250 mM proline, histidine/HCl pH 6.7, 0.1 w/v % Tween 80; after 35° C., 200 rpm, 14 days; n=2
human IgE (human) [10] = biological target: human IgE (human) (UniProt P01854); test: ELISA-based potency on human IgE; GI-301 100 mg/mL, 250 mM proline, histidine/HCl pH 6.7, 20 mg/mL methionine; after 35° C., 200 rpm, 5 days; n=2
human IgE (human) [11] = biological target: human IgE (human) (UniProt P01854); test: ELISA-based potency on human IgE; GI-301 100 mg/mL, 250 mM proline, histidine/HCl pH 6.7, 20 mg/mL methionine; after 35° C., 200 rpm, 14 days; n=2
human IgE (human) [12] = biological target: human IgE (human) (UniProt P01854); test: ELISA-based potency on human IgE; GI-301 100 mg/mL, 250 mM proline, histidine/HCl pH 6.7, no additive; after light stress (7.5 hours, 750 W/m^2); n=2
human IgE (human) [13] = biological target: human IgE (human) (UniProt P01854); test: ELISA-based potency on human IgE; GI-301 100 mg/mL, 250 mM proline, histidine/HCl pH 6.7, 0.1 w/v % Tween 80; after light stress (7.5 hours, 750 W/m^2); n=2
human IgE (human) [14] = biological target: human IgE (human) (UniProt P01854); test: ELISA-based potency on human IgE; GI-301 100 mg/mL, 250 mM proline, histidine/HCl pH 6.7, 20 mg/mL methionine; after light stress (7.5 hours, 750 W/m^2); n=2
human IgE (human) [15] = biological target: human IgE (human) (UniProt P01854); test: ELISA-based potency on human IgE; GI-301 100 mg/mL, 250 mM proline, histidine/HCl pH 6.7, 0.1 w/v % Tween 80 and 20 mg/mL methionine; after 35° C., 200 rpm, 5 days; n=2
human IgE (human) [16] = biological target: human IgE (human) (UniProt P01854); test: ELISA-based potency on human IgE; GI-301 100 mg/mL, 250 mM proline, histidine/HCl pH 6.7, 0.1 w/v % Tween 80 and 20 mg/mL methionine; after 35° C., 200 rpm, 14 days; n=2
human IgE (human) [17] = biological target: human IgE (human) (UniProt P01854); test: ELISA-based potency on human IgE; GI-301 100 mg/mL, 250 mM proline, histidine/HCl pH 6.7, 0.1 w/v % Tween 80 and 20 mg/mL methionine; after light stress (7.5 hours, 750 W/m^2); n=2

Chain of UniProt P01854 (P01854 other isoform, or with tags, fused parts or gaps): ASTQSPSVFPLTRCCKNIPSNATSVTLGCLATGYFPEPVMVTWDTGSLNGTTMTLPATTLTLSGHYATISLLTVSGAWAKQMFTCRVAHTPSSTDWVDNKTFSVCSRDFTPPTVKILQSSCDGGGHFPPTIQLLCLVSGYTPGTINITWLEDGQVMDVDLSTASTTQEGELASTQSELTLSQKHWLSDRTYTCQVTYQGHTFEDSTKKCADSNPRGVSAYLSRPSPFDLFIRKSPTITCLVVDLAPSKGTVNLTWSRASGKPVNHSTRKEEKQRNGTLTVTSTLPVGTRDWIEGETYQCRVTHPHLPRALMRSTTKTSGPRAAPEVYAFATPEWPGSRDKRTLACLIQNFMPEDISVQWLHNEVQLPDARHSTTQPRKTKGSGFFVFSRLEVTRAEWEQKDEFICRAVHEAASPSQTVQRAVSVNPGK

potency ELISA [%] (relative potency) (human IgE (human) [1]): 101% | potency ELISA [%] (relative potency) (human IgE (human) [2]): 98% | potency ELISA [%] (relative potency) (human IgE (human) [3]): 106% | potency ELISA [%] (relative potency) (human IgE (human) [4]): 103% | potency ELISA [%] (relative potency) (human IgE (human) [5]): 92% | relative potency by ELISA (human IgE (human) [6]): 79.7% | relative potency by ELISA (human IgE (human) [7]): 105% | relative potency by ELISA (human IgE (human) [8]): 92.1% | relative potency by ELISA (human IgE (human) [9]): 80.4% | relative potency by ELISA (human IgE (human) [10]): 113% | relative potency by ELISA (human IgE (human) [11]): 74.2% | relative potency by ELISA (human IgE (human) [12]): 110% | relative potency by ELISA (human IgE (human) [13]): 110% | relative potency by ELISA (human IgE (human) [14]): 112% | relative potency by ELISA (human IgE (human) [15]): 94.3% | relative potency by ELISA (human IgE (human) [16]): 111% | relative potency by ELISA (human IgE (human) [17]): 111%
B1: GI-301 (fusion protein dimer comprising FcεRIα ECD and modified Fc region) (Fc fusion, not shown: small tags and cut ends)
chain: VPQKPKVSLNPPWNRIFKGENVTLTCNGNNFFEVSSTKWFHNGSLSEETNSSLNIVNAKFEDSGEYKCQHQQVNESEPVYLEVFSDWLLLQASAEVVMEGQPLFLRCHGWRNWDVYKVIYYKDGEALKYWYENHNISITNATVEDSGTYYCTGKVWQLDYESEPLNITVIKAPREKYWLQSHTQPLGVFLFPPKPKDTLMISRTPEVTCVVVDVSQEDPEVQFNWYVDGVEVHNAKTKPREEQFNSTYRVVSVLTVLHQDWLNGKEYKCKVSNKGLPSSIEKTISKAKGQPREPQVYTLPPSQEEMTKNQVSLTCLVKGFYPSDIAVEWESNGQPENNYKTTPPVLDSDGSFFLYSRLTVDKSRWQEGNVFSCSVMHEALHNHYTQKSLSLSLGK

— patent US20240148829A1
